Measurements from the supplement of paper PMC12042874.
± gives the uncertainty stated by the source.

assay: amyloid nucleation score (Sup35N fusion, yeast selection) (log enrichment); library NNK1; higher = more nucleation; inactive = no reads after selection
Summary of the method: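 Output and input plasmid inserts were sequenced by Illumina after psi-negative yeast carrying Sup35N fused to peptides of 20 random codons had been induced 24 hours with 100 μM copper sulfate and grown 7 days at 30°C on medium lacking adenine and uracil. The nucleation score is the DiMSum log enrichment of output over input reads, centred on the mode score of non-aggregating sequences. Sequences with under 100 input reads were excluded.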

**Q.** With MLKRVVVLLRPSVRGRVDRV as the substance, how does the amyloid nucleation score read?
**A.** -0.11 ± 0.28

**Q.** For RAKSGLMNGDGYRNVAQGDD, which amyloid nucleation score is on record?
**A.** 0.155 ± 0.43

**Q.** For NTNLVWR, which amyloid nucleation score is on record?
**A.** 0.267 ± 0.36

**Q.** For KFMLWPNIWMN, which amyloid nucleation score is on record?
**A.** 0.916 ± 0.54

**Q.** Which amyloid nucleation score does the source give for FGVTIPQVWVEC here?
**A.** -0.961 ± 1.7

**Q.** For PALKYFEAVVH, which amyloid nucleation score is on record?
**A.** inactive

**Q.** With LWGLVRSFFDIDNLKGFRTE as the substance, how does the amyloid nucleation score read?
**A.** -0.257 ± 1.9

**Q.** Which amyloid nucleation score does the source give for RYRNVVRSFFNEYRLCPGIE here?
**A.** -0.235 ± 1.4

**Q.** Which amyloid nucleation score does the source give for LISVCRFLAIILFRTFA here?
**A.** 0.365 ± 0.69

**Q.** For SYSEYPHVEYLLLFSMTQWN, which amyloid nucleation score is on record?
**A.** 0.43 ± 0.34

**Q.** For IKVQASQDP, which amyloid nucleation score is on record?
**A.** 9.252 ± 0.05

**Q.** With LWSVCLVTSVQKDAGVLPSG as the substance, how does the amyloid nucleation score read?
**A.** 0.85 ± 0.62

**Q.** With SVENNTAPICNTKSSVSDSL as the substance, how does the amyloid nucleation score read?
**A.** 0.852 ± 0.93

**Q.** For HYRSHSIGIRFAVSDWRIAF, which amyloid nucleation score is on record?
**A.** 0.844 ± 0.46

**Q.** For YCLFNLESG, which amyloid nucleation score is on record?
**A.** 0.315 ± 0.53

**Q.** With SVVRTMSLLATFLRV as the substance, how does the amyloid nucleation score read?
**A.** -0.795 ± 1.6

**Q.** Which amyloid nucleation score does the source give for DGVVCMNAVCFQTMYVMYWL here?
**A.** 6.69 ± 0.08

**Q.** For NKSVFVLFVWINSENNVYCE, which amyloid nucleation score is on record?
**A.** 0.443 ± 0.62

**Q.** Which amyloid nucleation score does the source give for WMEVHWGGNVSLDSSYMELF here?
**A.** -0.044 ± 1.1

**Q.** With DGDSLGCYWDASLARQCFGR as the substance, how does the amyloid nucleation score read?
**A.** -0.086 ± 0.29

**Q.** Which amyloid nucleation score does the source give for LLSLNEMYMTLMGGTVPRVG here?
**A.** -0.076 ± 0.56

**Q.** Which amyloid nucleation score does the source give for SLIYNRIRFLDGF here?
**A.** 0.925 ± 1.1

**Q.** With GEYCKSLSTE as the substance, how does the amyloid nucleation score read?
**A.** 1.01 ± 0.93

**Q.** Which amyloid nucleation score does the source give for CVMVVSF here?
**A.** 0.934 ± 0.42

**Q.** With SCFFKKMDMDT as the substance, how does the amyloid nucleation score read?
**A.** 0.436 ± 0.69

**Q.** For EWLDALKANTIFYWKYGSMI, which amyloid nucleation score is on record?
**A.** 0.496 ± 0.63

**Q.** Which amyloid nucleation score does the source give for GCDGATVAGGTNYPDQMYSF here?
**A.** 0.786 ± 0.74

**Q.** With AMWSSLIDMCNNG as the substance, how does the amyloid nucleation score read?
**A.** 0.35 ± 0.25

**Q.** With MNKIITRTRSMATSDSTRHS as the substance, how does the amyloid nucleation score read?
**A.** 0.052 ± 0.67

**Q.** With SGSNEWSRENLIGVFVVPGQ as the substance, how does the amyloid nucleation score read?
**A.** -0.21 ± 1.1

**Q.** With FGTGFSLCKFFCLAMRPSDV as the substance, how does the amyloid nucleation score read?
**A.** 5.25 ± 0.08

**Q.** For LSWIR, which amyloid nucleation score is on record?
**A.** -0.09 ± 0.66

**Q.** For FYSALLGQTRYSRSSRSSTE, which amyloid nucleation score is on record?
**A.** inactive

**Q.** Which amyloid nucleation score does the source give for MMGASGFF here?
**A.** -0.14 ± 0.32

**Q.** For LDRYVRFEIRS, which amyloid nucleation score is on record?
**A.** 0.661 ± 0.56

**Q.** For RRRLPGSSPISLGYFSSSLA, which amyloid nucleation score is on record?
**A.** -0.509 ± 1.7

**Q.** For KKGLSKMVKPVYSCLN, which amyloid nucleation score is on record?
**A.** -1 ± 1.6

**Q.** For CGFKLVVVCFMK, which amyloid nucleation score is on record?
**A.** 3.47 ± 0.2

**Q.** For VNSFCR, which amyloid nucleation score is on record?
**A.** 0.587 ± 1.1

**Q.** Which amyloid nucleation score does the source give for VIGSMVGLI here?
**A.** 0.668 ± 0.31

**Q.** With CDKGPGCWVRMKQPGRLQMG as the substance, how does the amyloid nucleation score read?
**A.** 3.46 ± 0.076

**Q.** For SLRGQAHLQFSLRILSHSS, which amyloid nucleation score is on record?
**A.** 1.4 ± 0.24

**Q.** With VRALND as the substance, how does the amyloid nucleation score read?
**A.** -0.581 ± 0.3

**Q.** With NFNCLVTDAFYFRGWKCLDR as the substance, how does the amyloid nucleation score read?
**A.** 4.9 ± 0.12

**Q.** With YSNWGHVSRWFLRFIVVFFI as the substance, how does the amyloid nucleation score read?
**A.** 0.459 ± 0.64

**Q.** Which amyloid nucleation score does the source give for FLSIYDTIVDCWVALVLVRG here?
**A.** -0.723 ± 0.91

**Q.** With WACMWAQSPYGAFFIVSMED as the substance, how does the amyloid nucleation score read?
**A.** -0.223 ± 0.38

**Q.** For CHSTGGT, which amyloid nucleation score is on record?
**A.** -0.468 ± 1.9

**Q.** For SWQAVCAMSCCLW, which amyloid nucleation score is on record?
**A.** 8.628 ± 0.051

**Q.** With YTAMFCNSVLHADGLPQLMG as the substance, how does the amyloid nucleation score read?
**A.** -0.033 ± 0.97

**Q.** For CFCVD, which amyloid nucleation score is on record?
**A.** 1.01 ± 0.19

**Q.** With HLVGWESR as the substance, how does the amyloid nucleation score read?
**A.** 0.476 ± 0.79

**Q.** For LSIRNTSTSRITTLFLGL, which amyloid nucleation score is on record?
**A.** 1.88 ± 0.4

**Q.** Which amyloid nucleation score does the source give for RSVRCVLLVAINRVMLG here?
**A.** 0.52 ± 0.67

**Q.** For HKNSTVKSVWQDLMSDVDVD, which amyloid nucleation score is on record?
**A.** -0.028 ± 0.43

**Q.** With AGFSSDFASVPHPLGYGWLT as the substance, how does the amyloid nucleation score read?
**A.** -0.662 ± 1.2

**Q.** For ISTSC, which amyloid nucleation score is on record?
**A.** 0.778 ± 0.49

**Q.** Which amyloid nucleation score does the source give for VFNRFCYSSFCLTYRDYDSQ here?
**A.** 8.198 ± 0.07

**Q.** With QTDSTVGD as the substance, how does the amyloid nucleation score read?
**A.** -0.522 ± 1.4

**Q.** Which amyloid nucleation score does the source give for RQMLLPGMRVGKRC here?
**A.** 0.144 ± 0.36

**Q.** Which amyloid nucleation score does the source give for WIYGWACWYCNLNDSTRVGK here?
**A.** 5.798 ± 0.047

**Q.** For FFRTSLCYDLVNSDEVDIIV, which amyloid nucleation score is on record?
**A.** 0.411 ± 0.51

**Q.** Which amyloid nucleation score does the source give for WSLDSNKSWSCFKCLCFYCG here?
**A.** 6.223 ± 0.054

**Q.** Which amyloid nucleation score does the source give for VPTMEMTVAYGSWTCSERCE here?
**A.** -0.468 ± 0.44

**Q.** Which amyloid nucleation score does the source give for SYTVFCRVWYDSHRFM here?
**A.** -0.066 ± 0.45

**Q.** Which amyloid nucleation score does the source give for PECTNDKVY here?
**A.** 0.541 ± 0.52

**Q.** Which amyloid nucleation score does the source give for FLALR here?
**A.** -0.249 ± 0.61

**Q.** Which amyloid nucleation score does the source give for LVRDHRYFEFLASV here?
**A.** 0.381 ± 0.39

**Q.** For LRTMIVLGFSTWDTCIGSES, which amyloid nucleation score is on record?
**A.** -0.537 ± 0.28

**Q.** For SCTWYKFWRKSIAMILAILS, which amyloid nucleation score is on record?
**A.** 0.169 ± 0.9

**Q.** Which amyloid nucleation score does the source give for SLFPVTVRKDCCLT here?
**A.** -0.434 ± 0.39

**Q.** With SKNHSFDSYVMTVYFHHCGK as the substance, how does the amyloid nucleation score read?
**A.** -0.291 ± 0.4

**Q.** Which amyloid nucleation score does the source give for SSRYLSDSIKLAGWSIT here?
**A.** -1.39 ± 2.4

**Q.** With VSWECSIVNAYMQPATCDII as the substance, how does the amyloid nucleation score read?
**A.** 4.88 ± 0.1

**Q.** For HNCTTGVTFKSEIASILVQP, which amyloid nucleation score is on record?
**A.** -0.261 ± 0.4

**Q.** Which amyloid nucleation score does the source give for LRTWDSIFYDLMGACGRPWV here?
**A.** -0.521 ± 0.54

**Q.** With MINHSEPQHCMYV as the substance, how does the amyloid nucleation score read?
**A.** 0.466 ± 0.9

**Q.** Which amyloid nucleation score does the source give for FASARQLMQTTDKHSVWYVV here?
**A.** -1.87 ± 1.8

**Q.** Which amyloid nucleation score does the source give for QHKTRQYHVSPVRVTIL here?
**A.** 0.135 ± 0.65

**Q.** For TTLVKPDEIVFVSINECWCW, which amyloid nucleation score is on record?
**A.** 0.021 ± 0.59

**Q.** With GLCFDARLLEL as the substance, how does the amyloid nucleation score read?
**A.** -1.87 ± 2.7

**Q.** For DCFLCLKVLGMSAVLREWYL, which amyloid nucleation score is on record?
**A.** -1.17 ± 0.94

**Q.** Which amyloid nucleation score does the source give for WTCMKSFVMWQSLDFVHFIA here?
**A.** 0.85 ± 0.98

**Q.** For YFSDIAMWHSEIVR, which amyloid nucleation score is on record?
**A.** -0.605 ± 0.73

**Q.** For LSKISTVK, which amyloid nucleation score is on record?
**A.** -0.778 ± 0.64

**Q.** For SNYSQLLVMEVLHLGYTIRR, which amyloid nucleation score is on record?
**A.** -1.19 ± 0.91

**Q.** With RLVGGPRRASITKNWYTEK as the substance, how does the amyloid nucleation score read?
**A.** -0.649 ± 0.73
